To fix the notation:
B1: MalT (wild type), N-terminally His-tagged (natural protein, Escherichia coli, UniProt P06993 1-901, looked up)
chain: MLIPSKLSRPVRLDHTVVRERLLAKLSGANNFRLALITSPAGYGKTTLISQWAAGKNDIGWYSLDEGDNQQERFASYLIAAVQQATNGHCAICETMAQKRQYASLTSLFAQLFIELAEWHSPLYLVIDDYHLITNPVIHESMRFFIRHQPENLTLVVLSRNLPQLGIANLRVRDQLLEIGSQQLAFTHQEAKQFFDCRLSSPIEAAESSRICDDVSGWATALQLIALSARQNTHSAHKSARRLAGINASHLSDYLVDEVLDNVDLATRHFLLKSAILRSMNDALITRVTGEENGQMRLEEIERQGLFLQRMDDTGEWFCYHPLFGNFLRQRCQWELAAELPEIHRAAAESWMAQGFPSEAIHHALAAGDALMLRDILLNHAWSLFNHSELSLLEESLKALPWDSLLENPQLVLLQAWLMQSQHRYGEVNTLLARAEHEIKDIREDTMHAEFNALRAQVAINDGNPDEAERLAKLALEELPPGWFYSRIVATSVLGEVLHCKGELTRSLALMQQTEQMARQHDVWHYALWSLIQQSEILFAQGFLQTAWETQEKAFQLINEQHLEQLPMHEFLVRIRAQLLWAWARLDEAEASARSGIEVLSSYQPQQQLQCLAMLIQCSLARGDLDNARSQLNRLENLLGNGKYHSDWISNANKVRVIYWQMTGDKAAAANWLRHTAKPEFANNHFLQGQWRNIARAQILLGEFEPAEIVLEELNENARSLRLMSDLNRNLLLLNQLYWQAGRKSDAQRVLLDALKLANRTGFISHFVIEGEAMAQQLRQLIQLNTLPELEQHRAQRILREINQHHRHKFAHFDENFVERLLNHPEVPELIRTSPLTQREWQVLGLIYSGYSNEQIAGELEVAATTIKTHIRNLYQKLGVAHRQDAVQHAQQLLKMMGYGV
notes: Purified with 0.1 mM ADP or 0.4 mM ATP; the elution at 103 kDa fits the whole protein; In PDB 8BOB only residues 1-423 are well defined; also called WT MalT; MalT WT; source: E. coli BL21 (DE3) ΔmalT220, purified (Ni Sepharose, gel filtration)
B3: MalY (wild type), GST tag removed (enzyme, Escherichia coli, UniProt P23256 1-390, looked up)
chain: MFDFSKVVDRHGTWCTQWDYVADRFGTADLLPFTISDMDFATAPCIIEALNQRLMHGVFGYSRWKNDEFLAAIAHWFSTQHYTAIDSQTVVYGPSVIYMVSELIRQWSETGEGVVIHTPAYDAFYKAIEGNQRTVMPVALEKQADGWFCDMGKLEAVLAKPECKIMLLCSPQNPTGKVWTCDELEIMADLCERHGVRVISDEIHMDMVWGEQPHIPWSNVARGDWALLTSGSKSFNIPALTGAYGIIENSSSRDAYLSALKGRDGLSSPSVLALTAHIAAYQQGAPWLDALRIYLKDNLTYIADKMNAAFPELNWQIPQSTYLAWLDLRPLNIDDNALQKALIEQEKVAIMPGYTYGEEGRGFVRLNAGCPRSKLEKGVAGLINAIRAVR
notes: MalY, PLP-dependent dimeric enzyme of E. coli; full-length malY amplified from E. coli genomic DNA, cloned in pGEX-6P-1; the printed mass of 2 × 43.5 kDa fits the untagged protein; Each subunit holds the cofactor PLP; also called MalY WT; source: E. coli BL21 (DE3) ΔmalT220, purified (Glutathione Sepharose, gel filtration); not shown: GST, N-terminal, cleaved

Data set [1] concerns the molecule itself. In words: SEC; Superdex 200 Increase 10/300 GL, in the presence of 1 mM maltotriose and 0.1 mM ADP; same molar amounts of MalT and MalY WT or MalY-D182A/E185A/S218A, separately or together; fractions on SDS-PAGE.
For data set [2], the target named is B3. In words: cryo-EM structure; purified MalT-MalY complex at about 0.5 mg/ml, ADP and PLP bound; 2.94 Å, C2 symmetry. The settings on record: both partners purified.
Data set [3] deals with B1. In words: pull-down; GST-tagged MalY incubated with an excess of WT or mutant MalT on ice for 30 min, Glutathione Sepharose 4B, buffer TKCl with 0.1 mM ADP and 10 μM PLP; elution with 20 mM glutathione, SDS-PAGE, Coomassie. The settings on record: both partners purified.
The target of data set [4] is T1, MalT-N169A, N-terminally His-tagged (Escherichia coli, UniProt P06993 1-901, N169A).
T1 construct: MalT of Escherichia coli, variant of plasmid pOM206 made by site-directed mutagenesis; source: E. coli BL21 (DE3) ΔmalT220, purified (Ni Sepharose, gel filtration)
T1 sequence (looked up): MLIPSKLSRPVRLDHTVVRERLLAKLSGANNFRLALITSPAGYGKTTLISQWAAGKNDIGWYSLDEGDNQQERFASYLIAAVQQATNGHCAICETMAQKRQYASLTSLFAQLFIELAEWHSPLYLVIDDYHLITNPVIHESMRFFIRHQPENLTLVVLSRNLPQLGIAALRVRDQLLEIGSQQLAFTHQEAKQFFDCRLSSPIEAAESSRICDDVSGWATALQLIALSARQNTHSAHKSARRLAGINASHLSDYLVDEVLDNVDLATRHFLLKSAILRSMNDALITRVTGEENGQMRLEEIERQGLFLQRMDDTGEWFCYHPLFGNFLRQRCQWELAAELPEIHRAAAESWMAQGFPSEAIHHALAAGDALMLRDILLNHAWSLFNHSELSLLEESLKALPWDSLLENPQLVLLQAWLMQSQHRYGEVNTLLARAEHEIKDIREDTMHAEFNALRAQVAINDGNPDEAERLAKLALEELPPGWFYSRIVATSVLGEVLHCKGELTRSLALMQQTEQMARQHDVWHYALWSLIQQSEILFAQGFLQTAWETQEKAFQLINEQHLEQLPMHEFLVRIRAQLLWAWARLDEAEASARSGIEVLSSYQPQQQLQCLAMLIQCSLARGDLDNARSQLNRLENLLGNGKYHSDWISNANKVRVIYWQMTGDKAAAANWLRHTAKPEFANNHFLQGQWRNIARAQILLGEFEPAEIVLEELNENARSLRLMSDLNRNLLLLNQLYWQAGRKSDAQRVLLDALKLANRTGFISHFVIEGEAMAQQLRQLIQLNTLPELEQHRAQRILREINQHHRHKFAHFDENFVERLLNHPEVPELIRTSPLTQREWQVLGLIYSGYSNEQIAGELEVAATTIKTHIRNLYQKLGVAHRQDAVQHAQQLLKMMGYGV
The description is as above. The settings on record: both partners purified.

Data set [5] concerns the target T2, MalT-E140A, N-terminally His-tagged (Escherichia coli, UniProt P06993 1-901, E140A).
T2 construct: MalT of Escherichia coli, variant of plasmid pOM206 made by site-directed mutagenesis; source: E. coli BL21 (DE3) ΔmalT220, purified (Ni Sepharose, gel filtration)
T2 sequence (looked up): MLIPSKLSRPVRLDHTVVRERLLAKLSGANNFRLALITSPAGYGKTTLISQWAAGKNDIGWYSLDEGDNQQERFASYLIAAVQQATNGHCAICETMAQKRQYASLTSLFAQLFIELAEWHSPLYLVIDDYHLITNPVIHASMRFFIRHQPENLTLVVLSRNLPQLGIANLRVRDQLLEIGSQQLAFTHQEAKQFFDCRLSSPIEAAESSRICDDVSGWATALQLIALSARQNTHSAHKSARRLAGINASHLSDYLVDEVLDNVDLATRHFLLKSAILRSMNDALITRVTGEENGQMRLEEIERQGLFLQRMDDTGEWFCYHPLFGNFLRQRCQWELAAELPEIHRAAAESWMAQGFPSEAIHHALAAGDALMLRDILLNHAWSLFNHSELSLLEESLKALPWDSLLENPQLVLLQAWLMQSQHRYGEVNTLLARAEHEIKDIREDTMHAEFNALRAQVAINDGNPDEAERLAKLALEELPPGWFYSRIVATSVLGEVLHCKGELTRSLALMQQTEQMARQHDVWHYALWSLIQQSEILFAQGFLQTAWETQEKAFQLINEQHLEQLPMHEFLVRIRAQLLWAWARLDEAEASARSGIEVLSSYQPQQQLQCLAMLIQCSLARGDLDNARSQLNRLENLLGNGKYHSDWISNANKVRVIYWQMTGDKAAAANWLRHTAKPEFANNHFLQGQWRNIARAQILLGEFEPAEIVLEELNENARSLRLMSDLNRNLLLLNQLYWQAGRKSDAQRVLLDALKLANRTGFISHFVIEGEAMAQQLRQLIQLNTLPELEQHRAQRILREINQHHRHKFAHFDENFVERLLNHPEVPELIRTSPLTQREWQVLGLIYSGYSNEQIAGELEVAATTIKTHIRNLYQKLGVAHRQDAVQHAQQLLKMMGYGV
The data set is described as above. The settings on record: both partners purified.

Data set [6] concerns the molecule itself. In words: SEC; Superdex 200 Increase 10/300 GL, 4 °C, in the presence of ADP; MalT (buffer A, 0.1 mM ADP) and MalY (buffer TKCl, 10 μM PLP) each alone, or incubated at a 1:1 molar ratio on ice for 30 min and run in buffer TKCl with 0.1 mM ADP and 10 μM PLP.
Data set [7] addresses B1. The data set is described as above. Particulars: both partners purified.

Turning to B1, the binding result in data set [1] is “binds”. For the same molecule, the “stoichiometry N” value in data set [2] was 1 MalT per MalY (printed as 2:2).

B2: N-terminally GST-tagged MalY (enzyme, Escherichia coli, UniProt P23256 1-390, looked up)
chain: MFDFSKVVDRHGTWCTQWDYVADRFGTADLLPFTISDMDFATAPCIIEALNQRLMHGVFGYSRWKNDEFLAAIAHWFSTQHYTAIDSQTVVYGPSVIYMVSELIRQWSETGEGVVIHTPAYDAFYKAIEGNQRTVMPVALEKQADGWFCDMGKLEAVLAKPECKIMLLCSPQNPTGKVWTCDELEIMADLCERHGVRVISDEIHMDMVWGEQPHIPWSNVARGDWALLTSGSKSFNIPALTGAYGIIENSSSRDAYLSALKGRDGLSSPSVLALTAHIAAYQQGAPWLDALRIYLKDNLTYIADKMNAAFPELNWQIPQSTYLAWLDLRPLNIDDNALQKALIEQEKVAIMPGYTYGEEGRGFVRLNAGCPRSKLEKGVAGLINAIRAVR
notes: MalY of E. coli; full-length malY amplified from E. coli genomic DNA, cloned in pGEX-6P-1; Bait of the pull-down; 10 μM PLP present; not shown: GST, N-terminal, kept
As for B2, the binding result in data set [3], in data set [4] and in data set [5] was “binds” in each case.
B3: the “stoichiometry N” value in data set [6] is 2. In addition, in data set [7], the binding result is “binds”.

Broadly, the stoichiometry N is a count of units in the complex or per binding partner.

The values above are taken from paper PMC10427625, “Structural basis for negative regulation of the Escherichia coli maltose system” (Nature Communications, 2023).
